Assay results published in patent US20250092133A1 (Amgen, published 2025).
Residue numbers refer to the chain shown, from its start. One block for each binder: values may come before it.

Assays:
[1] = molecular target: T1, Hu CDH3 Dom2 mu (aa 216-327), human/mouse chimeric CDH3 on CHO cells (chimeric hu/mu); assay: flow cytometry, transfected CHO cells; crude undiluted periplasmic scFv extract; anti-FLAG M2 + anti-mouse IgG Fcγ-PE; control PBS/2% FCS
T1 chain: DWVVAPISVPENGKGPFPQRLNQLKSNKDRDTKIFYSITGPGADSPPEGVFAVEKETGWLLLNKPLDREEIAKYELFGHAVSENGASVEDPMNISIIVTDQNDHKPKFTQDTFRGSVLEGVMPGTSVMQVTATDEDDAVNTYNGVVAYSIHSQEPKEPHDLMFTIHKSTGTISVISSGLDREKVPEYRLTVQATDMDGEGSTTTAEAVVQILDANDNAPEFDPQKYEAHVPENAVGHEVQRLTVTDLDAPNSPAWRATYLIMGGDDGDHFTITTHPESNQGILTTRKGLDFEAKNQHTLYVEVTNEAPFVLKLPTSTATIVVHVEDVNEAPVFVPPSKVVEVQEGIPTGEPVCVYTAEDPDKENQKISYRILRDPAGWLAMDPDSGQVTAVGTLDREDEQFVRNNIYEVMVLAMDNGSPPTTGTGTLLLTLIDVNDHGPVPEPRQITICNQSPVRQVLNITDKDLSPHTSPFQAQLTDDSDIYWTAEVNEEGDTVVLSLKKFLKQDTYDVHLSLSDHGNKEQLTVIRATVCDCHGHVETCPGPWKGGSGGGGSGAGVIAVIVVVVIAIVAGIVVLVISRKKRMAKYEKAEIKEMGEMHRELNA
Method: (§1) Cells transfected with human or murine CDH3, or with the chimeric human/mouse CDH3 molecules (see Example 1) were stained with crude, undiluted periplasmic extract containing scFv binding to human/macaque CDH3. […] As negative control, cells were incubated with PBS/2% FCS instead of the periplasmic extract. The samples were measured by flow cytometry.

[2] = molecular target: T2, Hu CDH3 Dom1C mu (aa 180-215), human/mouse chimeric CDH3 on CHO cells (chimeric hu/mu, UniProt P22223 108-681 (human entry)); assay: as above
T2 chain: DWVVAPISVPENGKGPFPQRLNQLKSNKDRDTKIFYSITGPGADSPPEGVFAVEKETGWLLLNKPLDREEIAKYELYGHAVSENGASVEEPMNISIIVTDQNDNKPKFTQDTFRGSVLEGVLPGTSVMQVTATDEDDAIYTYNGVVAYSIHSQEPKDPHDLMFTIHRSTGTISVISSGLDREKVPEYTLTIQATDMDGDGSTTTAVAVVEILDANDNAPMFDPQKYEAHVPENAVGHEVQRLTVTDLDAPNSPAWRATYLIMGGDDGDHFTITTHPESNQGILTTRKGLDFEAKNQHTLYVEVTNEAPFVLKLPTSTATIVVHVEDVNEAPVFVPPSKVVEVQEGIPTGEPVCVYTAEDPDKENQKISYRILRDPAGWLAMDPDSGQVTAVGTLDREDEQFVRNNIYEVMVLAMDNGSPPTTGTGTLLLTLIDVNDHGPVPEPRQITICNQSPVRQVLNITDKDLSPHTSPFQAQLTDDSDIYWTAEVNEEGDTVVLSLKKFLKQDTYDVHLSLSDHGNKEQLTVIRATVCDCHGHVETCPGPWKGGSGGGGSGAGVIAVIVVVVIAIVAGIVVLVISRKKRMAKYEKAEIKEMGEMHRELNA
Method: as §1

[3] = molecular target: T3, human CDH3 (P-cadherin) on cells (human, UniProt P22223 108-829); assay: as above
T3 construct: The entry includes signal peptide and pro-peptide; extracellular domain D1 starts at aa 108; also called hu CDH3; hu CDH-3
Method: as §1

[4] = molecular target: T4, Hu CDH3 Dom3 mu (aa 328-440), human/mouse chimeric CDH3 on CHO cells (chimeric hu/mu); assay: as above
Method: as §1

[5] = molecular target: T5, Hu CDH3 Dom1B mu (aa 144-179), human/mouse chimeric CDH3 on CHO cells (chimeric hu/mu, UniProt P22223 108-681 (human entry)); assay: flow cytometry, transfected CHO cells; crude periplasmic scFv extract; anti-FLAG M2 + anti-mouse IgG Fcγ-PE
T5 chain: T2 chain with A52T, V53I, T57S, N63H, K64M, E70K, A72V, Y77F, E90D, N104H
Method: as §1

[6] = molecular target: Hu CDH3 Dom3B mu (aa 364-403), human/mouse chimeric CDH3 on CHO cells (chimeric hu/mu, UniProt P22223 108-681 (human entry)); assay: flow cytometry, transfected CHO cells; crude undiluted periplasmic scFv extract; anti-FLAG M2 + anti-mouse IgG Fcγ-PE; control PBS/2% FCS
Method: as §1

[7] = molecular target: Hu CDH3 Dom3A mu (aa 328-363), human/mouse chimeric CDH3 on CHO cells (chimeric hu/mu, UniProt P22223 108-681 (human entry)); assay: flow cytometry, transfected CHO cells; crude periplasmic scFv extract; anti-FLAG M2 + anti-mouse IgG Fcγ-PE
Method: as §1

[8] = molecular target: T4, Hu CDH3 Dom3 mu (aa 328-440), …; assay: as above
Method: as §1

murine CDH3 on cells = molecular target: T6, murine CDH3 on cells (mouse, UniProt P10287 100-822); assay: as above
T6 construct: negative control; also called mouse CDH3
T6 sequence: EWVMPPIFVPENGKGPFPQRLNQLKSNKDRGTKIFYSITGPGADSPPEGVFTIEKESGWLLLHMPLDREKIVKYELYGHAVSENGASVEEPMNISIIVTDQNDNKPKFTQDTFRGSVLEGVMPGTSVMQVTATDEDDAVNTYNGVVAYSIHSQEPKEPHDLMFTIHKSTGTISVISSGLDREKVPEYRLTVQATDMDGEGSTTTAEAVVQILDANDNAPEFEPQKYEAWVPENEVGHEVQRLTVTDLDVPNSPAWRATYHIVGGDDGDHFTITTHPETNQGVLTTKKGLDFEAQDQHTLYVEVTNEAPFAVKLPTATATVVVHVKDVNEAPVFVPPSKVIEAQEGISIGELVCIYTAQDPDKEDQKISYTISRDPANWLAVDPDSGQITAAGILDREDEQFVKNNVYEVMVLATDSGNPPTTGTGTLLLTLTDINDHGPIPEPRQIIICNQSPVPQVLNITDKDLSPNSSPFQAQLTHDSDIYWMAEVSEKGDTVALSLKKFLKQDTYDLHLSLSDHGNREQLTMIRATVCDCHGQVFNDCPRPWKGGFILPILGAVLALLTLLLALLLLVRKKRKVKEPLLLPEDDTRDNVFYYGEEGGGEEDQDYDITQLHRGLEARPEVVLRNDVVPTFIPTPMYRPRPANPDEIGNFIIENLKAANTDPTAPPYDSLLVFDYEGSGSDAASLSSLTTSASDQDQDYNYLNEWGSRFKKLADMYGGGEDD
Method: as §1

[9] = molecular target: T7, Hu CDH3 Dom3C mu (aa 404-440), human/mouse chimeric CDH3 on CHO cells (chimeric hu/mu, UniProt P22223 108-681 (human entry)); assay: as above
Method: as §1

[10] = molecular target: T7, Hu CDH3 Dom3C mu (aa 404-440), …; assay: flow cytometry, transfected CHO cells; crude undiluted periplasmic scFv extract; anti-FLAG M2 + anti-mouse IgG Fcγ-PE; control PBS/2% FCS
Method: as §1

B1: CDH3-6 scFv (scFv)
scFv: EVQLVEESGPELVKPGASVKISCKASGYAFSSSWMNWVKQRPGKGLEWIGRIYPGDGETKYNGKFKGKATLTADKSSSTAYMQLSSLTSEDSAVYFCARQRDYGALYAMDYWGQGTSVTVSSGGGGSGGGGSGGGGSELVMTQSPASLSASVGETVTITCRASDDIYSYLAWYQQKQGKSPQLLVYNAKTLAEGVPSRFSGSGSGTQFSLKINSLQPEDFGTYYCQNHYVTPFTFGAGTKLEIK
binding result [1]: binds
binding result [2]: binds
binding result [3]: binds
binding result [4]: binds
binding result [5]: no binding

B2: CDH3-32 scFv (scFv)
scFv: EVQLVEQPGAELVRPGTSVKLSCKASGYTFTSYWMHWVKQRPGQGLEWIGVIDTSDSYTIYNQKFKGKATLTVDTSSSTAYMQLSSLTSEDSSVYFCARSGPGYFDVWGQGTTVTVSSGGGGSGGGGSGGGGSELQMTQSPASLSASVGETVTITCRASENIYSYLAWYQQKQGKSPQLLVYNAKTLAEGVPSRFSGSGSGTQFSLKINSLQPEDFGSYYCQHHYGTPYTFGGGTKLEIK
binding result [1]: binds
binding result [3]: binds
binding result [6]: binds
binding result [7]: no binding
binding result [8]: no binding
binding result (murine CDH3 on cells): no binding
binding result [9]: no binding

Results, then the binder that gave them:

binding result [1]: binds
binding result [3]: binds
binding result [10]: binds
binding result [6]: binds
binding result [8]: no binding
binding result (murine CDH3 on cells): no binding
B3: CDH3-33 scFv (scFv)
scFv: EVQLVEQPGAELVRPGTSVKLSCKASGYTFTSYWMHWVKQRPGQGLEWIGVIDTSDSYTIYNQKFKGKATLTVDTSSSTAYMQLSSLTSGDSSVYFCARSGPGYFDVWGQGTTVTVSSGGGGSGGGGSGGGGSELVMTQSPASLSASVGETVTITCRASGNIHNYLAWYQQKQGKSPQLLVYNAKTLADGVPSRFSGSGSGTQYSLKINSLQPEDFGTYYCQHFWSTPYTFGGGTKLEIK

binding result [4]: binds
B4: CDH3-7 (scFv)
scFv: EVQLVEQSGAELVKPGASVKISCKASGYAFSSSWMNWVKQRPGKGLEWIGRIYPGDGETKYNGKFKGKATLTADKSSSTAYMQLSTLTSEDSAVYFCARQRDYGALYAMDYWGQGTSVTVSSGGGGSGGGGSGGGGSELQMTQSPASLSASVGETVTITCRLSENIYSYLAWYRQKEGESPQLLVYNSKTLAEGVPSRFSGSGSGTQFSLKINSLQPEDFGNYYCQNHYGFPFTFGAGTKLEIK
notes: Used as crude periplasmic extract and detected through a FLAG tag; also called CDH3-7 scFv

binding result [1]: binds
binding result [2]: binds
binding result [3]: binds
binding result [5]: no binding
B5: CDH3-5 (scFv)
scFv: EVQLVEQSGAELVKPGASVKISCKASGYAFSTSWMNWVKQRPGKGLEWIGRIYPGDGETKYNGKFKGKATLTADKSSSTAYMQLSSLTSEDSAVYFCARQRDYGALYALDYWGQGTRVTVSSGGGGSGGGGSGGGGSELMMTQTPASLSASVGETVTFTCRASENIYSYLAWYQQKQGKSPQLLVYNAKTLAEGVPSRFSGSGSGTQFSLKINSLQPEDFGSYYCQHHYVPPYTFGGGTKLEIK
notes: Used as crude periplasmic extract and detected through a FLAG tag; also called CDH3-5 scFv
